Patent publication US20200093922A1 (AGENCY FOR SCIENCE TECHNOLOGY AND RESEARCH, published 2020)

Columns and labels:
[1] = target: T1, human PD-L1 coupled to human Fc (human, UniProt Q9NZQ7 19-239, limits assumed); assay: SPR (Proteon XPR36), human PD-L1-Fc immobilised, crude H12 Fab extract flowed
T1 construct: also called human PD-L1-Fc; not shown: human Fc

[2] = target: T1, human PD-L1 coupled to human Fc; assay: SPR, Proteon XPR36, human PD-L1-Fc immobilised, crude H12 Fab extract flown over
[3] = target: T2, murine PD-L1 coupled to human Fc (murine, UniProt Q9EP73 19-238, limits assumed); assay: SPR (Proteon XPR36), mouse PD-L1-Fc immobilised, crude H12 Fab extract flowed
T2 construct: also called murine PD-L1-Fc; mouse PD-L1 coupled to Fc; not shown: human Fc

[4] = target: T2, murine PD-L1 coupled to human Fc; assay: SPR, Proteon XPR36, murine PD-L1-Fc immobilised, crude H12 Fab extract flown over
[5] = target: biotinylated murine PD-L1 (murine, UniProt Q9EP73 19-238, limits assumed, biotinylated (site not stated)); assay: blocking ELISA: biotinylated murine PD-L1 pre-incubated with Fab, then added to coated murine PD-1-Fc (blocked partner), streptavidin-HRP
biotinylated human PD-L1 = biotinylated human PD-L1 (human, UniProt Q9NZQ7 19-238, limits assumed, biotinylated (site not stated)); assay: blocking ELISA: biotinylated human PD-L1 pre-incubated with Fab, then added to coated human PD-1-Fc (blocked partner), streptavidin-HRP
biotinylated human PD-L1, sequence (Q9NZQ7 19-238 limits assumed): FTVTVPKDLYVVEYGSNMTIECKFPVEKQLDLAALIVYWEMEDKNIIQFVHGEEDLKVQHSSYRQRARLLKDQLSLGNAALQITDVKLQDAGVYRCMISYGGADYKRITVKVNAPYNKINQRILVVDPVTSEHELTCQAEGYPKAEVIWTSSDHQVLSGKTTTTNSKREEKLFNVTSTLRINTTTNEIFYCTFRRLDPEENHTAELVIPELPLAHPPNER

T1 sequence (Q9NZQ7 19-239 limits assumed): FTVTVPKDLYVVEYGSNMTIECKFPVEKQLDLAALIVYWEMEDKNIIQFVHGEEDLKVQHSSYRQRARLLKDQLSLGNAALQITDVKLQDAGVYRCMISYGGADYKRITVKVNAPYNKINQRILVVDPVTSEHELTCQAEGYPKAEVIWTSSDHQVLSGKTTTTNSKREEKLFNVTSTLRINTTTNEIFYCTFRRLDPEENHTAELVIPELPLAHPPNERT
T2 sequence (Q9EP73 19-238 limits assumed): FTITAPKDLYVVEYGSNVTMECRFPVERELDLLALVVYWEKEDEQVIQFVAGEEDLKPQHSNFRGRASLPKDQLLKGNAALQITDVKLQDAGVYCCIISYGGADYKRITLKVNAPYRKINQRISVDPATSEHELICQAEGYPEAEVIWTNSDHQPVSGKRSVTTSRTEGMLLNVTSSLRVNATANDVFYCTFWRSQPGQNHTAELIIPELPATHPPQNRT
biotinylated murine PD-L1, sequence (Q9EP73 19-238 limits assumed): as above

Kd [1]: 0.313 nM
koff [2]: 0.000471 s⁻¹
kon [2]: 1.5e+06 M⁻¹ s⁻¹
Kd [3]: 3.04 nM
koff [4]: 0.00407 s⁻¹
kon [4]: 1.34e+06 M⁻¹ s⁻¹
IC50 (read off the curve) [5]: ~4 nM
IC50 (read off the curve) (biotinylated human PD-L1): ~20 nM
B1: anti-PD-L1 antibody clone H12, Fab format (Fab, V domains shown)
VH: EVQLVQSGAEVKKPGASVKVSCKASGGTFSSYAISWVRQAPGQGLEWMGRIIPILGIANYAQKFQGRVTITADKSTSTAYMELSSLRSEDTAVYYCARSGHGYSYGAFDYWGQGTL
VL: QSVLTQPPSVSGAPGQRVTISCTGSSSNIGAGYDVHWYQQLPGTAPKLLIYGNSNRPSGVPDRFSGSKSGTSASLAITGLQAEDEADYYCQSYDSSLSGSYVVFGGGTKLTVL
notes: Tested as Fab; the SPR used a crude Fab extract; also called crude H12 Fab extract
